T1: PpAKR1A (Physcomitrium patens, UniProt A9RMV1)
T1 construct: gene LOC112295666; full coding region (from ATGGCGTTCGAAGTGCCT), expressed in E. coli BL21 from pMAL-c1 (BamHI/SalI); purified on Ni-NTA as 'His-fusion' (tag description inconsistent: MBP vector vs His)
T1 sequence (A9RMV1 1-354): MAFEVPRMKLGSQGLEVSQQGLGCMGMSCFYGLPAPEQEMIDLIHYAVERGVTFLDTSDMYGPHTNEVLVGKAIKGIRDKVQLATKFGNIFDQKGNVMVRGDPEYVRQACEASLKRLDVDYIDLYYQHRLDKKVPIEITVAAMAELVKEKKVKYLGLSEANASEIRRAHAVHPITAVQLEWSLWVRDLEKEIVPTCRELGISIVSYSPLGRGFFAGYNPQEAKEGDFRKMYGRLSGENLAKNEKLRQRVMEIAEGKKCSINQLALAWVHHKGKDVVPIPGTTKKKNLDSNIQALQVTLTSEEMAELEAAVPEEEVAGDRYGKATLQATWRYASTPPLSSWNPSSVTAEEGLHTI


Legend:
[1] = molecular target: T1, PpAKR1A; assay: spectrophotometric NADPH oxidation at […] nm, Michaelis-Menten non-linear fit; format: biochemical; conditions: 150 µM NADPH, 50 mM Tris-HCl pH 7.0, 25 °C; apparent constant
[2] = substrate: CC(=O)C=O; assay: purified protein; format: biochemical, Physcomitrium patens; conditions: 150 µM NADPH, 50 mM Tris-HCl pH 7.0, 25 °C, apparent constant
[3] = substrate: O=CC=O; assay: purified protein; format: biochemical, Physcomitrium patens; conditions: 150 µM NADPH, 50 mM Tris-HCl pH 7.0, 25 °C, apparent constant

Row | Molecule | Km [1] | Km [2] | kcat [2] | kcat/Km [2] | Km [3] | kcat [3] | kcat/Km [3]
1 | C=CC=O [Acrolein] | 6.2 ± 1.11 mM | – | – | – | – | – | –
2 | PpAKR1A (Physcomitrium patens) (protein, full coding region (from …), expressed in E. coli BL21 from pMAL-c1 (BamHI/SalI); purified on Ni-NTA as 'His-fusion' (tag description inconsistent: MBP vector vs His)) MAFEVPRMKLGSQGLEVSQQGLGCMGMSCFYGLPAPEQEMIDLIHYAVERGVTFLDTSDMYGPHTNEVLVGKAIKGIRDKVQLATKFGNIFDQKGNVMVRGDPEYVRQACEASLKRLDVDYIDLYYQHRLDKKVPIEITVAAMAELVKEKKVKYLGLSEANASEIRRAHAVHPITAVQLEWSLWVRDLEKEIVPTCRELGISIVSYSPLGRGFFAGYNPQEAKEGDFRKMYGRLSGENLAKNEKLRQRVMEIAEGKKCSINQLALAWVHHKGKDVVPIPGTTKKKNLDSNIQALQVTLTSEEMAELEAAVPEEEVAGDRYGKATLQATWRYASTPPLSSWNPSSVTAEEGLHTI | – | 0.2262 ± 0.063 mM | 0.86 ± 0.055 s⁻¹ | 3810 M⁻¹ s⁻¹ | 1.526 ± 0.237 mM | 0.063 ± 0.041 s⁻¹ | 63 M⁻¹ s⁻¹

From publication PMC6888457, “PpAKR1A, a Novel Aldo-Keto Reductase from Physcomitrella Patens, Plays a Positive Role in Salt Stress” (International Journal of Molecular Sciences, 2019)
